# Laboratory results taken from article PMC3840220.
# Target: bromelain-released influenza hemagglutinin (X31) (influenza virus X31)
# Assay: […]
substance,measurement,value
bromelain-released influenza hemagglutinin (X31) (domain or fragment),stoichiometry N,3
